According to patent US11371013B2, “Culture medium composition and method of culturing cell or tissue using thereof” (Nissan Chemical Industries, Ltd., priority 2012, dated 2022):

What was measured:
[1] = State of medium composition (liquid/solid); format: physicochemical
Experimental: (§1) This aqueous solution was allowed to cool to room temperature with stirring, and sterilized at 121° C. for 20 min in an autoclave. […] The viscosity of the medium compositions was measured using an E type viscometer (manufactured by Toki Sangyo Co., Ltd., Viscometer TVE-22L, standard roter 1° 34′×R24) under 37° C. condition at 100 rpm for 5 min.
DMEM/F-12 medium (manufactured by Aldrich, 100 mL) was placed in a 200 mL pear-shaped flask, and methylcellulose (M0387, manufactured by Aldrich, […]) was added. The mixture was stirred while cooling in an ice bath to dissolve methylcellulose. Using this solution, medium compositions added with the aqueous methylcellulose solution at a final concentration of 0.1, 0.3, 0.6 or 1.0% (w/v) were prepared.
A 10-fold concentration of DMEM/F-12 medium (manufactured by Aldrich, 1 mL), a buffer for reconstitution (manufactured by Nitta Gelatin Inc., 1 mL) and pure water (1.5 mL) were added to 0.3% cell matrix type I-A (manufactured by Nitta Gelatin Inc., 6.5 mL), and the mixture was stirred in an ice to give a 0.2% collagen-containing medium. Similarly, medium compositions added with collagen at a final concentration of 0.01, 0.05, 0.1 or 0.2% (w/v) were prepared.
(§2) The final concentration of polysaccharide was set to 0.1% (w/v) for xanthan gum, sodium alginate, locust bean gum, 0.2% (w/v) for methylcellulose, and 0.05% (w/v) for K-carageenan and diutan gum. The state of each medium composition and the viscosity measured by a method similar to that in Analysis Example 1 are shown in Tables 11-16.

[2] = Viscosity measurement of medium composition (E type viscometer); format: physicochemical; settings: 37°C, 100 rpm
Experimental: The viscosity of the liquid containing the structure can be measured, for example, by the method described in the below-mentioned Examples. Specifically, it can be measured under 37° C. conditions and using an E-type viscosity meter (manufactured by Toki Sangyo Co., Ltd., TV-22 type viscosity meter, model: TVE-22L, corn roter: standard roter 1° 34′×R24, rotation number 100 rpm).
as §1
The medium compositions prepared above were subjected to a suspension test of HeLa cell spheres and a viscosity measurement, in the same manner as with the deacylated gellan gum-containing medium. The viscosity of 1.0% (w/v) methylcellulose was measured at 50 rpm due to the measurement range of the apparatus.
In the same manner as in Experimental Example 2, spheres of HeLa cells were formed, and several tens of the spheres were added to each medium (1 mL) prepared above, the mixture was stood still at 37° C. for 1 hr, and the suspended state of the sphere cells was visually observed. […] Furthermore, it was confirmed that addition of an equal amount of the medium to the cell suspension and centrifugation (300 to 400G, 5 min) thereof result in sedimentation and recovery of the spheres of HeLa cells. The suspended state of the spheres of HeLa cells cultured in the medium composition of the present invention is each shown in FIG. 11.
as §2

HepG2 cells [3] = assay: Toxicity test of compound to hepatocytes: lactic acid dehydrogenase (LDH) activity measurement; format: cell-based, human; settings: 1 day, DAG 0.015%
Experimental: (§3) This aqueous solution was sterilized at 121° C. for 20 min in an autoclave. On the other hand, HepG2 cells was mixed with DMEM medium (manufactured by WAKO) at 100000 cells/mL, and the cell suspension was dispensed to the wells of a 96-well flat bottom ultra low adhesion surface microplate (manufactured by Corning Incorporated, #3474) at 100 μL/well. […] Successively, this plate was cultured by being stood still in a CO2 incubator (37° C., 5% CO2) for 1 day.
To the culture medium (100 μL) after culturing for 1 day was added DMEM medium (manufactured by WAKO, 100 μL), and the plate was centrifuged by 440G for 15 min. The supernatant (100 μL) was dispensed to a 96-well titer plate (manufactured by Corning Incorporated), a reaction mixture (100 μL) in a cytotoxicity detection kit (manufactured by Roche Applied Science) was added, and the mixture was stood under shading at room temperature for 30 min. Successively, according to the protocol of the above-mentioned kit, the absorbance at 490 nm (reference; 600 nm) was measured by an absorbance spectrometer (manufactured by Molecular Devices, SPECTRA MAX 190), whereby the rate of the disordered cell, that is, cell disorder rate (%), was measured.

HepG2 cells [4] = assay: Toxicity test of compound to hepatocytes: number of viable cells (Cell Titer-Glo); format: cell-based, human; settings: 1 day, DAG 0.015%, no addition = 1
Experimental: as §3
The culture medium (50 μL) after culturing for 1 day was dispensed to a 96-well titer plate (manufactured by Corning Incorporated), to this culture medium was added a Cell Titer-Glo (registered trade mark) reagent (manufactured by Promega, 50 μL), and the mixture was incubated at room temperature for 10 min. The luminescence intensity was measured by a multiplate reader is (manufactured by Molecular Devices, FlexStation3) to measure the number of viable cells.

| Compound | state ([1]; 0.01% (w/v) in DMEM/F-12) | state ([1]; 0.05% (w/v) in DMEM/F-12) | state ([1]; 0.1% (w/v) in DMEM/F-12) | state ([1]; 0.2% (w/v) in DMEM/F-12) | viscosity ([2]; 0.01% (w/v) in DMEM/F-12) | viscosity ([2]; 0.05% (w/v) in DMEM/F-12) | viscosity ([2]; 0.1% (w/v) in DMEM/F-12) | viscosity ([2]; 0.2% (w/v) in DMEM/F-12) | cell disorder rate (HepG2 cells [3]; 20 μM) | cell disorder rate (HepG2 cells [3]; 40 μM) | cell disorder rate (HepG2 cells [3]; 60 μM) | cell disorder rate (HepG2 cells [3]; 100 μM) | relative cell number (HepG2 cells [4]; 20 μM) | relative cell number (HepG2 cells [4]; 40 μM) | relative cell number (HepG2 cells [4]; 60 μM) | relative cell number (HepG2 cells [4]; 100 μM) |
| --- | --- | --- | --- | --- | --- | --- | --- | --- | --- | --- | --- | --- | --- | --- | --- | --- |
| collagen | liquid | liquid/solid | solid (gel) | solid (gel) | 1.18 mPa · s | unmeasurable | unmeasurable | unmeasurable |  |  |  |  |  |  |  |  |
| Cc1c(C)c2c(c(C)c1O)CCC(C)(COc1ccc(CC3SC(=O)NC3=O)cc1)O2 (stereo not shown) [Troglitazone] |  |  |  |  |  |  |  |  | 2.68% | 14.7% | 22.5% | 60.7% | 0.68 | 0.50 | 0.48 | 0.39 |
